Results taken from article PMC7572726 (Nature, 2020).

Biological target: the molecule itself
Assay: crystal structure

B1: Flavobacteriaceae sp. STING (ΔTM) (domain or fragment)
chain: EAEYSPAFALAVGYFKNFIFPAITQIKENGEVNPKICIYKPKHFDELTSTNIDMIKAELTNKKYNLSEINLSLKGARARDILTLNKKSKIHSYFDFPNTLLSLYSYVDFKIASSNNNSSELKKKKFVELLIEQFYLKLNELIQENNLTNNITFCDKNLQGL
  stoichiometry N: 2
